For experiment [1], the target named is T1, Human PTK7 (human, UniProt Q13308 31-1070).
T1 sequence: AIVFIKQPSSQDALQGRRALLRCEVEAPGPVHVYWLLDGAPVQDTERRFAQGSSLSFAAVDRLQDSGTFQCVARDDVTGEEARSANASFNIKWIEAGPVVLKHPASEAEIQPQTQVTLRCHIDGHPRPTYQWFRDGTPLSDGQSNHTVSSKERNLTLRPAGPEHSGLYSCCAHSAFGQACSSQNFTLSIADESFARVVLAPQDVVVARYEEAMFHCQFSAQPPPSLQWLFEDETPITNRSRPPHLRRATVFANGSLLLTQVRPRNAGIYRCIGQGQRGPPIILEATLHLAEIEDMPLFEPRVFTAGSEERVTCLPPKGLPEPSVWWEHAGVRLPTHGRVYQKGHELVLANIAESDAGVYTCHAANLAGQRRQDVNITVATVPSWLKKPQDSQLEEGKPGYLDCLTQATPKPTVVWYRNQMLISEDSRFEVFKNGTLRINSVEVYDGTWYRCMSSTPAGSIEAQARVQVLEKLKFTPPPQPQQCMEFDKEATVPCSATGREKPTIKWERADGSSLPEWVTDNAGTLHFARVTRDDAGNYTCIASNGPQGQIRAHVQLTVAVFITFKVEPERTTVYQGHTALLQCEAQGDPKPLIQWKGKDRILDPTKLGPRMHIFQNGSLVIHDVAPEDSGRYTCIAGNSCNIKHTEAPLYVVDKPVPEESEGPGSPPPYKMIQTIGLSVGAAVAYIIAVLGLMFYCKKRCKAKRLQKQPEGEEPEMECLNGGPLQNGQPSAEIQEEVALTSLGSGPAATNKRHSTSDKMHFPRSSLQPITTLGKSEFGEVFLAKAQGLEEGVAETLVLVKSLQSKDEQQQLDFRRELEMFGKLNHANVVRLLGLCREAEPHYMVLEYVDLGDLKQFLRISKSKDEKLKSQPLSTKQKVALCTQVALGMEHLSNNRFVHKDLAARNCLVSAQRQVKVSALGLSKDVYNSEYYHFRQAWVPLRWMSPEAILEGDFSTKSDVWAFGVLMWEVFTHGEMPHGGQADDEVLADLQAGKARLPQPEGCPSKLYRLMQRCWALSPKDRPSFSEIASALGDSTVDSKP
In words: cell-based or functional assay.

Experiment [2] addresses T2, Human PTK7 Protein, His Tag (Acro Biosystems) (human, UniProt Q13308 31-704).
T2 construct: Bought His-tagged protein; also called CCK4; not shown: His tag
T2 sequence: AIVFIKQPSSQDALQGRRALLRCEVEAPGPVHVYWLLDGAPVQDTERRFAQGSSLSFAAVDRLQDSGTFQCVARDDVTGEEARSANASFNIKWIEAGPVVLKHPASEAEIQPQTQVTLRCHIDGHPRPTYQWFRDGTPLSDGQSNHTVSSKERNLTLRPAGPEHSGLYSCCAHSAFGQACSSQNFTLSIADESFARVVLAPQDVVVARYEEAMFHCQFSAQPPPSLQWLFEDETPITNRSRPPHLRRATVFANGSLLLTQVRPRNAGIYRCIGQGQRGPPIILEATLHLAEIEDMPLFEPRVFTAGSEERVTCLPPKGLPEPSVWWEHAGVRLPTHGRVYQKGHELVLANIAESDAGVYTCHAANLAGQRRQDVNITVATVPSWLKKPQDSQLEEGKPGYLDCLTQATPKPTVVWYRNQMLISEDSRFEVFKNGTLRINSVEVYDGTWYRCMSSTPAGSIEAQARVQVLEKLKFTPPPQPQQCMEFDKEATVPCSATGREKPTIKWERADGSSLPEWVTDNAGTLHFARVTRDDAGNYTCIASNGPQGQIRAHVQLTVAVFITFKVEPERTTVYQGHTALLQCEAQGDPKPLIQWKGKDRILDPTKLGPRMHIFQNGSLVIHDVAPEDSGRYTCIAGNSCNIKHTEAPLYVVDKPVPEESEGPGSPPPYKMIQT
Nature of the experiment: BLI (Octet), antibody on anti-human Fc sensor, 50 nM PTK7; grade 2 = substantially similar binding relative to parent. On the technique in general: Biolayer interferometry detects binding as a change in optical thickness at a sensor tip.

The results in this text go back to patent US20260209386A1 (MYTHIC THERAPEUTICS, published 2026).

B1: MYT11315 (antibody, V domains shown)
VH: EVQLVESGGGLVQPGGSLRLSCTASGIDLSRYSMGWVRQAPGKGLEWVGIISYGGSTYYASWAKGRFTISRDTSKNTVYLQMNSLRAEDTAVYFCARVGYPGYSGYGYAFDAFDPWGQGTLVTVSS
VL: EIVMTQSPSTLSASVGDRVIITCQSSKSVYNDNWHSWYQQKPGKAPKLLIYGASTLASGVPSRFSGSGSGAEFTLTISSLQPDDFATYYCAGGYSSSSDNGFGQGTKLTVL
Regarding B1, the “Internalization, FOW @ 25 nM (fold over the wildtype, parental antibody)” value in experiment [1] was 1.51 fold over parental antibody.

B2: MYT11326 (antibody, V domains shown)
VH: EVQLVESGGGLVQPGGSLRLSCTASGIDLSRYSMGWVRQAPGKGLEWVGIISYGGSTYYASWAKGRFTISRDTSKNTVYLQMNSLRAEDTAVYFCARVGYPGYSGYGYAFDAFDPWGQGTLVTVSS
VL: EIVMTQSPSTLSASVGDRVIITCQSSKSVYNDNWLSWYQQKPGKAPKLLIYGASTLASGVPSRFSGSGSGAEFTLTISSLQPDDFATYYCAGHYSSSSDNGFGQGTKLTVL
B2: the “Internalization, FOW @ 25 nM (fold over the wildtype, parental antibody)” value in experiment [1] was 1.29 fold over parental antibody.

B3: MYT11321 (antibody, V domains shown)
VH: EVQLVESGGGLVQPGGSLRLSCTASGIDLSRYSMGWVRQAPGKGLEWVGIISYGGSTYYASWAKGRFTISRDTSKNTVYLQMNSLRAEDTAVYFCARVGYPGYSGYGYAFDAFDPWGQGTLVTVSS
VL: EIVMTQSPSTLSASVGDRVIITCQSSKSVYNDNWLSWYQQKPGKAPKLLIYGASTHASGVPSRFSGSGSGAEFTLTISSLQPDDFATYYCAGGYSSSSDNGFGQGTKLTVL
As to B3, in experiment [1], the “Internalization, FOW @ 25 nM (fold over the wildtype, parental antibody)” value is 1.36 fold over parental antibody.

B4: MYT11316 (antibody, V domains shown)
VH: EVQLVESGGGLVQPGGSLRLSCTASGIDLSRYSMGWVRQAPGKGLEWVGIISYGGSTYYASWAKGRFTISRDTSKNTVYLQMNSLRAEDTAVYFCARVGYPGYSGYGYAFDAFDPWGQGTLVTVSS
VL: EIVMTQSPSTLSASVGDRVIITCQSSKSVYNDNWLHWYQQKPGKAPKLLIYGASTLASGVPSRFSGSGSGAEFTLTISSLQPDDFATYYCAGGYSSSSDNGFGQGTKLTVL
In the case of B4, in experiment [1], the “Internalization, FOW @ 25 nM (fold over the wildtype, parental antibody)” value was 1.55 fold over parental antibody.

B5: MYT11328 (antibody, V domains shown)
VH: EVQLVESGGGLVQPGGSLRLSCTASGIDLSRYSMGWVRQAPGKGLEWVGIISYGGSTYYASWAKGRFTISRDTSKNTVYLQMNSLRAEDTAVYFCARVGYPGYSGYGYAFDAFDPWGQGTLVTVSS
VL: EIVMTQSPSTLSASVGDRVIITCQSSKSVYNDNWLSWYQQKPGKAPKLLIYGASTLASGVPSRFSGSGSGAEFTLTISSLQPDDFATYYCAGGYHSSSDNGFGQGTKLTVL
For the molecule B5, the “Internalization, FOW @ 25 nM (fold over the wildtype, parental antibody)” value in experiment [1] is 1.99 fold over parental antibody.

B6: MYT11337 (antibody, V domains shown)
VH: EVQLVESGGGLVQPGGSLRLSCTASGIDLSRYSMGWVRQAPGKGLEWVGIISYGGSTYYASWAKGRFTISRDTSKNTVYLQMNSLRAEDTAVYFCARVGYPGYSGYGYAFDAFDPWGQGTLVTVSS
VL: EIVMTQSPSTLSASVGDRVIITCQSSKSVYNDNWLSWYQQKPGKAPKLLIYGASTLASGVPSRFSGSGSGAEFTLTISSLQPDDFATYYCAGGYSSSSANGFGQGTKLTVL
For B6, the “Internalization, FOW @ 25 nM (fold over the wildtype, parental antibody)” value in experiment [1] was 1.68 fold over parental antibody.

B7: MYT11327 (antibody, V domains shown)
VH: EVQLVESGGGLVQPGGSLRLSCTASGIDLSRYSMGWVRQAPGKGLEWVGIISYGGSTYYASWAKGRFTISRDTSKNTVYLQMNSLRAEDTAVYFCARVGYPGYSGYGYAFDAFDPWGQGTLVTVSS
VL: EIVMTQSPSTLSASVGDRVIITCQSSKSVYNDNWLSWYQQKPGKAPKLLIYGASTLASGVPSRFSGSGSGAEFTLTISSLQPDDFATYYCAGGHSSSSDNGFGQGTKLTVL
With B7, the “Internalization, FOW @ 25 nM (fold over the wildtype, parental antibody)” value in experiment [1] was 1.6 fold over parental antibody.

B8: MYT11331 (antibody, V domains shown)
VH: EVQLVESGGGLVQPGGSLRLSCTASGIDLSRYSMGWVRQAPGKGLEWVGIISYGGSTYYASWAKGRFTISRDTSKNTVYLQMNSLRAEDTAVYFCARVGYPGYSGYGYAFDAFDPWGQGTLVTVSS
VL: EIVMTQSPSTLSASVGDRVIITCQSSKSVYNDNWLSWYQQKPGKAPKLLIYGASTLASGVPSRFSGSGSGAEFTLTISSLQPDDFATYYCAGGYSSSHDNGFGQGTKLTVL
On to B8, for which the “Internalization, FOW @ 25 nM (fold over the wildtype, parental antibody)” value in experiment [1] was 1.77 fold over parental antibody.

B9: MYT11324 (antibody, V domains shown)
VH: EVQLVESGGGLVQPGGSLRLSCTASGIDLSRYSMGWVRQAPGKGLEWVGIISYGGSTYYASWAKGRFTISRDTSKNTVYLQMNSLRAEDTAVYFCARVGYPGYSGYGYAFDAFDPWGQGTLVTVSS
VL: EIVMTQSPSTLSASVGDRVIITCQSSKSVYNDNWLSWYQQKPGKAPKLLIYGASTLASGVPSRFSGSGSGAEFTLTISSLQPDDFATYYCHGGYSSSSDNGFGQGTKLTVL
As for B9, the “Internalization, FOW @ 25 nM (fold over the wildtype, parental antibody)” value in experiment [1] was 1.58 fold over parental antibody.

B10: MYT11332 (antibody, V domains shown)
VH: EVQLVESGGGLVQPGGSLRLSCTASGIDLSRYSMGWVRQAPGKGLEWVGIISYGGSTYYASWAKGRFTISRDTSKNTVYLQMNSLRAEDTAVYFCARVGYPGYSGYGYAFDAFDPWGQGTLVTVSS
VL: EIVMTQSPSTLSASVGDRVIITCQSSKSVYNDNWLSWYQQKPGKAPKLLIYGASTLASGVPSRFSGSGSGAEFTLTISSLQPDDFATYYCAGGYSSSSHNGFGQGTKLTVL
On to B10, for which, in experiment [1], the “Internalization, FOW @ 25 nM (fold over the wildtype, parental antibody)” value was 1.77 fold over parental antibody.

B11: MYT11027 (antibody, V domains shown)
VH: EVQLVESGGGLVQPGGSLRLSCTASHLSLSSYWMSWVRQAPGKGLEWVGVISAGGNTYYANWAKGRFTISRDTSKNTVYLQMNSLRAEDTAVYFCARGDDGYTNAAYVSNLWGQGTLVTVSS
VL: EIVMTQSPSTLSASVGDRVIITCQASQSISSWLSWYQQKPGKAPKLLIYKASTLASGVPSRFSGSGSGAEFTLTISSLQPDDFATYYCQSYFDSTTIAFGQGTKLTVL
notes: MYT9361 HC variant
Consider B11, for which, in experiment [2], the binding result is recorded as “binds”.

B12: MYT11028 (antibody, V domains shown)
VH: EVQLVESGGGLVQPGGSLRLSCTASGHSLSSYWMSWVRQAPGKGLEWVGVISAGGNTYYANWAKGRFTISRDTSKNTVYLQMNSLRAEDTAVYFCARGDDGYTNAAYVSNLWGQGTLVTVSS
VL: EIVMTQSPSTLSASVGDRVIITCQASQSISSWLSWYQQKPGKAPKLLIYKASTLASGVPSRFSGSGSGAEFTLTISSLQPDDFATYYCQSYFDSTTIAFGQGTKLTVL
notes: MYT9361 HC variant
B12: the binding result in experiment [2] is recorded as “binds”.

B13: MYT11346 (antibody, V domains shown)
VH: EVQLVESGGGLVQPGGSLRLSCTASGIDLSNYHVIWVRQAPGKGLEWVGIIYTYDTTYYANWAKGRFTISRDTSKNTVYLQMNSLRAEDTAVYFCARSFSDISDLIKLWGQGTLVTVSS
VL: EIVMTQSPSTLSASVGDRVIITCQASQSLYNNKDLAWYQQKPGKAPKLLIYEASKLASGVPSRFSGSGSGAEFTLTISSLQPDDFATYYCLGEFSCGSGDCLAFGQGTKLTVL
For the molecule B13, the “Internalization, FOW @ 25 nM (fold over the wildtype, parental antibody)” value in experiment [1] is 1.16 fold over parental antibody.

B14: MYT11418 (antibody, V domains shown)
VH: EVQLVESGGGLVQPGGSLRLSCTASGIDLSNYAVIWVRQAPGKGLEWVGIIYTYDTTYYANWAKGRFTISRDTSKNTVYLQMNSLRAEDTAVYFCARSFSDISDLIKLWGQGTLVTVSS
VL: EIVMTQSPSTLSASVGDRVIITCQASQSLYNNKDLAWYQQKPGKAPKLLIYAASKLASGVPSRFSGSGSGAEFTLTISSLQPDDFATYYCLGEFSCGSGDCLAFGQGTKLTVL
For the molecule B14, the “Internalization, FOW @ 25 nM (fold over the wildtype, parental antibody)” value in experiment [1] is 1.19 fold over parental antibody.
